Laboratory results reported in patent US11419948B2, “Functionalized microgels with fibrin binding elements” (Georgia Tech Research Corporation, priority 2013, dated 2022).

Biological target: T1, fibrin (Homo sapiens, UniProt P02671+P02675+P02679)
T1 sequence (P02671 36-866 limits assumed): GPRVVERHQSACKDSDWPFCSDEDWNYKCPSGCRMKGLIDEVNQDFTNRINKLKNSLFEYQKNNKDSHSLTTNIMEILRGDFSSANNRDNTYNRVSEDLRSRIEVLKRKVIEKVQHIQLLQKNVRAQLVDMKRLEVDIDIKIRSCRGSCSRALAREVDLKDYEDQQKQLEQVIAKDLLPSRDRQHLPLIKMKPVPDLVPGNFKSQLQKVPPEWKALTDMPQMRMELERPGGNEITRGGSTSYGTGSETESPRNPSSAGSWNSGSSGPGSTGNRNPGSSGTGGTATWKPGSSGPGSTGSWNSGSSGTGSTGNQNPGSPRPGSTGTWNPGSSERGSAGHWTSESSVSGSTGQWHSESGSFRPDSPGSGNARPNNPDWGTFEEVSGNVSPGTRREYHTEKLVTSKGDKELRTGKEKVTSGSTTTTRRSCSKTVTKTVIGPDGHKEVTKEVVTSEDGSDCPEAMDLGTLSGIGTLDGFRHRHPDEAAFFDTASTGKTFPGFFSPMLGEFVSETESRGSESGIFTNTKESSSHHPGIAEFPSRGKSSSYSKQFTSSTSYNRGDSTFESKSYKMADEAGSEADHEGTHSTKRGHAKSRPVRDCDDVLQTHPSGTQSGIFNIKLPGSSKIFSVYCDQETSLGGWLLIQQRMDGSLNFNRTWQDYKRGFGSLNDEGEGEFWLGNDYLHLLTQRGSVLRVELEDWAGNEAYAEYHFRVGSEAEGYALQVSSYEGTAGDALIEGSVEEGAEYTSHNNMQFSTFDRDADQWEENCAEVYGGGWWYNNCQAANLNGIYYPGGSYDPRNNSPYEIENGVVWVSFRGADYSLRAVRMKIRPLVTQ
T1 sequence (P02675 45-491 limits assumed): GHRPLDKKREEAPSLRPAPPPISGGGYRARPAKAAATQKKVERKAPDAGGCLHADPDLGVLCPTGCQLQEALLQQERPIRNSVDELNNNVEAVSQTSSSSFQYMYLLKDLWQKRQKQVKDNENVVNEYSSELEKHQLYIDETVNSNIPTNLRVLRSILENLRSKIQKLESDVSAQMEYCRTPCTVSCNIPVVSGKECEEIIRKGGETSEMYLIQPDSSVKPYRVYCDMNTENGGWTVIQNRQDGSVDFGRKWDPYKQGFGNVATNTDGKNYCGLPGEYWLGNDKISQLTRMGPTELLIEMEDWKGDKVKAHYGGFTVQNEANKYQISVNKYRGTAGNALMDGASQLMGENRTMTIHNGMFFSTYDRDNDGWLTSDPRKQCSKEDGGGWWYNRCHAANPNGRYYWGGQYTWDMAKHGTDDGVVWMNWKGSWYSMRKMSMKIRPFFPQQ
T1 sequence (P02679 27-453): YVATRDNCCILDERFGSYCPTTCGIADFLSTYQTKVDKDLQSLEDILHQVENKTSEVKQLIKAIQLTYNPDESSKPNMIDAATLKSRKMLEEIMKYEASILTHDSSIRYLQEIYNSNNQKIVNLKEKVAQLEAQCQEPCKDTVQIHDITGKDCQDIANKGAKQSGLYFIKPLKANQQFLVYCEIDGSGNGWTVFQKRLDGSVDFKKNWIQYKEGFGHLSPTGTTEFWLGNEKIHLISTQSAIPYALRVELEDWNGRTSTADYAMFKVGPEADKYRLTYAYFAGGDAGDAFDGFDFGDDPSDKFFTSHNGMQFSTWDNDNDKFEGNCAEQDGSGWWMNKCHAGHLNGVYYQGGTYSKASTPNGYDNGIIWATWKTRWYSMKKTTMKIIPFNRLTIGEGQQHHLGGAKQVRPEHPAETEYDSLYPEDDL
Assay: Interferometry (Fortébio Blitz) binding of sdFv-microgels to fibrin layer
Details: several concentrations
Method: Ultralow crosslinked (ULC) microgels (microgels) with highly deformable, dendritic architecture were prepared using standard precipitation polymerization techniques previously described, Clemetson, K. J., Thrombosis Research, 129:220-224 (2012). A 95% pNIPAm/5% AAc composition (poly(N-isopropylacrylamide-co-acrylic acid) was utilized for microgel synthesis which results in microscaffolds ˜1-μm diameter in the swollen state. Co-polymerization with acrylic acid was utilized to allow for carboxylic acid chemoligation sites for sdFv attachment, Fries, et al., British Journal of Anesthesia, 105:116-121 (2010); Granville-Chapman, et al., Injury, 42:447-459 (2011). Following synthesis, microgels were purified using ultracentrifugation and conjugated to fibrin specific sdFvs using standard EDC/NHS chemistry. For confocal fluorescence microscopy experiments, sdFvs were also labeled with maleimide-Alexa Fluor-488 following conjugation to the microgels. To determine basic microgels properties, the particles were characterized using dynamic light scattering to determine the hydrodynamic radius and atomic and force microscopy imaging to characterize morphology. Finally, to ensure that microgels coupled to fibrin-specific sdFvs retained fibrin-binding capabilities, binding of sdFv-microgels to fibrin was determined through interferometry analysis utilizing the Fortébio Blitz system. […]

B1: PLPs: ultra-low crosslinked pNIPAm-AAc microgels conjugated to fibrin-specific sdFv H6 (conjugate)
VH: QVQLLESGGGLVQPGGSLRLSCAASGDRFTHNDMGWVRQAPGKGLEWVSTIPTTDGSTYYADSVKGRFTISRDNSKSTLYLQMNSLRAEDTAVYYCATGYMWKAPAYVKYWGQGTLVTVSSAAAEQKLISEEDLNSAAHYTDIG
- binding of sdFv-microgels to the fibrin layer: increased binding to the fibrin layer with increasing concentrations
